Columns and labels:
[1] = molecular target: the molecule itself; test: SEC; Superose 12, 20°C, 20 mM sodium phosphate, 150 mM NaCl, pH 7.0; each variant injected at 500 µM in 100 µl, alone or preincubated and injected together
[2] = molecular target: the molecule itself; test: SEC; Rs against protein concentration in the eluting peak; monomer-dimer equilibrium fitted (dimer to monomers); the text names size exclusion chromatography and light scattering

B1: mature ectodomain of ICA512 (ME ICA512), wild type, residues 470 to 558 (domain or fragment, human, UniProt Q16849 470-558, looked up)
chain: EYGYIVTDQKPLSLAAGVKLLEILAEHVHMSSGSFINISVVGPALTFRIRHNEQNLSLADVTQQAGLVKSELEAQTGLQILQTGVGQRE
notes: the results say 470 to 556; The methods give 470-558, the results 470-556; also called wild-type ME ICA512; wild type variant
stoichiometry N [1]: 2
Kd [2]: 800 nM

From PMC3174154, “Protein-Protein Interactions in Crystals of the Human Receptor-Type Protein Tyrosine Phosphatase ICA512 Ectodomain” (PLoS ONE, 2011)
